These results are taken from patent publication US20170114347.

What all share (assay): cell_activity
Series [1] deals with ZC3H10 TALE-VP64 (Xanthomonas). To be noted: CITED; U-2OS; cited from earlier work.
Series [2] deals with TALE-activator Ntf3-4 (Xanthomonas). Particulars: NTF3 mRNA in 293 cells; p65 version weaker.
Series [3] has as its system PUMA TALE-VP16 (Xanthomonas). To be noted: CITED; cited from earlier work.
Series [4] has as its system TALE-activator Ntf3-5 (Xanthomonas). To be noted: NTF3 mRNA in 293 cells; p65 version weaker.
Series [5] has as its system TALE-activator Ntf3-2 (Xanthomonas). To be noted: NTF3 mRNA in 293 cells; p65 version weaker.
In series [6] the test system is OSGIN2 TALE-VP64 (Xanthomonas). Particulars: CITED; U-2OS; cited from earlier work.
For series [7], the system named is IFNb1 TALE-VP16 (Xanthomonas). Particulars: CITED; cited from earlier work.
Series [8] has as its system IFNa1 TALE-VP16 (Xanthomonas). Particulars: CITED; cited from earlier work.
Series [9] concerns NTF3 TALE-VP16 (Miller 2011) (Xanthomonas). To be noted: CITED; HEK293; cited from earlier work.
For series [10], the system named is TALE-activator Ntf3-3 (Xanthomonas). Particulars: NTF3 mRNA in 293 cells; p65 version weaker.
Series [11] relates to TALE-activator Ntf3-1 (Xanthomonas). To be noted: NTF3 mRNA in 293 cells; weakest about 1000-fold; p65 version weaker.
Series [12] concerns KLF4 TALE-VP16 (Xanthomonas). Particulars: CITED; cited from earlier work.
In series [13] the test system is SOX2 TALE-VP16 (Xanthomonas). Particulars: CITED; cited from earlier work.

With “TACCATATCCCATCCAACTC (double strand) [ZC3H10 site]”, the activity (fold activation) in series [1] is 1.3.

Consider “TACGCCTCAGACCTGATC (double strand) [Ntf3-4 site]”, for which, in series [2], the activity (fold activation (approx.)) was over 1000.

With “TACTTGGAGGCAGTCAAGT (double strand) [PUMA site]”, the activity (fold activation) in [3] was 1.5.

On to “TCCCTCAATCTGGGAAAG (double strand) [Ntf3-5 site]”, for which the activity (fold activation (approx.)) in series [4] was over 1000.

In the case of “TCCGAACAGCTCCGCGCA (double strand) [Ntf3-2 site]”, in series [5], the activity (fold activation (approx.)) was over 1000.

As to “TCCTCCCCACCTTTAATTTT (double strand) [OSGIN2 site]”, the activity (fold activation) in series [6] is 4.8.

Consider “TCTCATATAAATAGGCCAT (double strand) [IFNb1 site]”, for which the activity (fold activation) in series [7] was 3.5.

In the case of “TGGAAAGTGGCCCAGAAGCAT (double strand) [IFNa1 site]”, the activity (fold activation) in [8] was 3.1.

“TGGAGCCATCTGGCCGGGT (double strand) [NTF3 site]”: the activity (fold activation) in series [9] was 30.

Regarding “TTCCCCTGCTGGGTAGTG (double strand) [Ntf3-3 site]”, the activity (fold activation (approx.)) in [10] was over 1000.

Regarding “TTCTGTTCACGGGACTCA (double strand) [Ntf3-1 site]”, the activity (fold activation (approx.)) in [11] was over 1000.

Consider “TTCTTACTTATAAC (double strand) [KLF4 site]”, for which, in [12], the activity (fold activation) was 2.2.

Turning to “TTTATTCCCTGACA (double strand) [SOX2 site]”, the activity (fold activation) in series [13] was 5.5.
